From patent KR20220059924A (dated 2022)

Experiments:
랫 Tie2 단백질 = target: T1, 랫 Tie2 단백질 (rat, UniProt A0ABK0L6J5 19-1116); experiment: flow cytometry, HEK293T cells transfected with rat Tie2
T1 construct: whole, on cells; also called rat Tie2

개 Tie2 단백질 = target: T2, 개 Tie2 단백질 (dog, UniProt A0A8I3S0B4 27-1128); experiment: flow cytometry, HEK293T cells transfected with dog Tie2
T2 construct: whole, on cells; also called dog Tie2

마우스 Tie2 단백질 = target: T3, 마우스 Tie2 단백질 (mouse, UniProt Q02858 23-1122); experiment: flow cytometry, HEK293T cells transfected with mouse Tie2
T3 construct: whole, on cells; also called mouse Tie2
T3 sequence (Q02858 23-1122): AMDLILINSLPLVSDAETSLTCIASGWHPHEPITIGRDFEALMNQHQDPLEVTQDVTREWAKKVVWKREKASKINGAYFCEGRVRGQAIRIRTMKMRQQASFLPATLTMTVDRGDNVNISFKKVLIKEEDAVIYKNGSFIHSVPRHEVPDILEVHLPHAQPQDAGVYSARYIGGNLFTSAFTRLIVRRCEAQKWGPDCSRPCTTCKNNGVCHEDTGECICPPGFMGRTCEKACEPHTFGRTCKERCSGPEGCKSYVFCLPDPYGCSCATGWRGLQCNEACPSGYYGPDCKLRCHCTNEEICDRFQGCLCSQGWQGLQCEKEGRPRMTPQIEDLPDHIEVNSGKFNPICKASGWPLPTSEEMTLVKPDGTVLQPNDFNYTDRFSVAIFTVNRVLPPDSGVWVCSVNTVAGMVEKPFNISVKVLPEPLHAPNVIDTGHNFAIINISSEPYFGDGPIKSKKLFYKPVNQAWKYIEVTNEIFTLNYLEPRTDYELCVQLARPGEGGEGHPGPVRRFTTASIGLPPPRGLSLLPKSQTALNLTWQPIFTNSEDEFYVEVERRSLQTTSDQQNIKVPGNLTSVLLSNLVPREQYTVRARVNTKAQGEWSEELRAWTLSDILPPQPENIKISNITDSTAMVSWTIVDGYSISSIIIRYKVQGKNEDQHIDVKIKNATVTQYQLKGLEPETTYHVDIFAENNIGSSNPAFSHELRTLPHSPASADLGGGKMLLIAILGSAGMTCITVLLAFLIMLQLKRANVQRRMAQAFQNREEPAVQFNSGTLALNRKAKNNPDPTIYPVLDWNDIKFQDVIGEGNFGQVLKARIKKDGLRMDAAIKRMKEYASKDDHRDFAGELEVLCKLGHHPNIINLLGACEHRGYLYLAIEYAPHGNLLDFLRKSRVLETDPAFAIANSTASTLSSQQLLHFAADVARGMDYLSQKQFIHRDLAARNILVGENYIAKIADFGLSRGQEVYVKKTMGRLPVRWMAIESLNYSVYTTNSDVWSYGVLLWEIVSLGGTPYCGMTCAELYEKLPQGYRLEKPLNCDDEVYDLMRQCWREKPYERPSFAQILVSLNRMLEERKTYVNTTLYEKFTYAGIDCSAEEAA

binding result (랫 Tie2 단백질): no binding (tested: 5ug/ml) | binding result (개 Tie2 단백질): no binding (tested: 5ug/ml) | binding result (마우스 Tie2 단백질): no binding (tested: 5ug/ml)
B1: Ang1mab2-1 (antibody, human IgG1, kappa, V domains shown)
VH: QVQLVESGGGVVQPGRSLRLSCAASGFTFSSYAMHWVRQAPGKGLEWVAVISYDGSNKYYADSVKGRFTISRDNSKNTLYLQMNSLRAEDTAVYYCARQYSGVFEYWGQGTLITVSS
VL: DIQMTQSPDSLAVSLGERATINCKSSQSVLYRSNNRNYLAWYQQKLGQPPQLLIYWASTRESGVPDRFSGSGSGADFTLTISSLQAEDVAVYYCQQYFSIPYTFGQGTKLEIKR
notes: also called 제2 기본 항체
